Where two headings read alike, the source gives them in different places.
B1: α-crystallin (fraction containing αA-crystallin and αB-crystallin) (complex, porcine (purified from porcine lenses))
chain 1: MDIAIQHPWFKRALGPFYPSRLFDQFFGEGLFEYDLLPFLSSTISPYYRQSLFRTVLDSGVSEVRSDRDKFVIFLDVKHFSPEDLTVKVQEDFVEIHGKHNERQDDHGYISREFHRRYRLPSNVDQSALSCSLSADGMLTFSGPKVPSGVDAGHSERAIPVSREEKPSSAPTS
chain 2: MDIAIHHPWIRRPFFPFHSPSRLFDQFFGEHLLESDLFPASTSLSPFYFRPPSFLRAPSWIDTGLSEMRLEKDRFSVNLDVKHFSPEELKVKVLGDVIEVHGKHEERQDEHGFISREFHRKYRIPADVDPLTITSSLSSDGVLTVNGPRRQASGPERTIPITREEKPAVTAAPKK
B2: creatine kinase M (CKMM) (enzyme)
chain: not shown

What was measured:
creatine kinase M (CKMM) [1] = target: B2; experiment: ITC
SEC-MALS = target: the molecule itself; experiment: SEC-MALS
creatine kinase M (CKMM) [2] = target: B2; experiment: ITC; remark: listed apart in the source
creatine kinase M (CKMM) [3] = target: B2; experiment: ITC; remark: listed apart in the source
[4] = target: B1; experiment: ITC
[5] = target: B1; experiment: ITC; remark: listed apart in the source
[6] = target: B1; experiment: ITC; remark: listed apart in the source
[7] = target: B1; experiment: ITC; remark: listed apart in the source

Sequence of creatine kinase M (CKMM) (P00563 whole entry): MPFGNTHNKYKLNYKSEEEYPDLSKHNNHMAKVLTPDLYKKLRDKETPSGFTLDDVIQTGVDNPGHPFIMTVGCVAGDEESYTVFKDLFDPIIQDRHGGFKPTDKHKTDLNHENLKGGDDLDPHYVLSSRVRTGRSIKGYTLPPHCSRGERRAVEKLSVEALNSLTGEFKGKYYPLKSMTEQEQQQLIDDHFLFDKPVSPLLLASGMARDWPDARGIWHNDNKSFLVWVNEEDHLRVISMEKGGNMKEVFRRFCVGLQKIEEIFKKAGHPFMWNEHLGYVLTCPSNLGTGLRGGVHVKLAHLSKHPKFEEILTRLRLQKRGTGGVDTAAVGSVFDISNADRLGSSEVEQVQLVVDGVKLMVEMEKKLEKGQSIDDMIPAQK

Row | Ka (creatine kinase M (CKMM) [1]) | Kd (creatine kinase M (CKMM) [1]) | Ka (creatine kinase M (CKMM) [2]) | Kd (creatine kinase M (CKMM) [2]) | Ka (creatine kinase M (CKMM) [3]) | Kd (creatine kinase M (CKMM) [3]) | dH [4] | stoichiometry N [4] | dH [5] | stoichiometry N [5] | stoichiometry N [6] | dH [7] | stoichiometry N [7] | Binder | stoichiometry N (SEC-MALS)
1 | 1.23e+06 M⁻¹ | 816 nM | 4.37e+06 M⁻¹ | 228 nM | 3e+06 M⁻¹ | 333 nM |  |  |  |  |  |  |  | B1 | 28 to 40
2 |  |  |  |  |  |  | 102 kcal/mol | 0.068 | 130 kcal/mol | 0.063 | 28 | 86.6 kcal/mol | 0.068 | B2 | 

From PMC7052508 (Biochemistry and Biophysics Reports, 2020)
